Measured values reported in patent US20220073643A1.

B1: 407A8G10 (antibody, V domains shown)
VH: DVQLVESGGGLVQPGGSRKLSCAASGFTFSGFGMHWIRQTPEKGLEWVAYISSGSRPIYYADTVKGRFTISRDNPKNTLFLQMTSLRSEDTAMYFCARFYYGNSFDHWGQGTLVTVSA
VL: DIVMTQSPSFLTVTAGEKVTMSCRSSQSLLNSGNQRNYLTWYQQKPGQPPKLLIYWASTRESGVPDRFTGSGSGTDFALTISSVQAEDLALYYCQNAYSFPLTFGAGTKLELK
B2: 407E11H8 (antibody, V domains shown)
VH: DVQLVESGGGLVQPGGSRKLSCAASGFTFSDFGMHWIRQTPEKGLEWVAYISSGSRPIYYADTVKGRFTISRDNPKNTLFLQMTSLRSEDTAMYFCVRFYFGNSFDHWGQGTLVTVSA
VL: DIVMTQSPSFLTVTAGEKVTMTCRSSQNLLNSGNLKNYLTWYQQKPGQPPKLLISWASTRESGVPDRFTGSGSGTDFTLTISSVQPEDLALYYCQNAYSFPLTFGAGTKLELK
B3: 407H12E6 (antibody, V domains shown)
VH: DVQLVESGGGLVQPGGSRKLSCAASGFTVSSFGMHWVRQAPEKGLEWVAYISSGSSPIYYADTVKGRFTISRDNPKNTLFLQMTSLRSEDTAIYFCARFYYGNSFDHWGQGTLVTVSA
VL: DIVMTQSPSSLTVTTGEKVTMSCKSSQSLLNSGNQKNYLTWYQQKPGQSPKLLIYWASTRESGVPDRFTGSGSGTDFTLTISSVQTEDLAVYFCQNNYFFPLTFGAGTKLELK

The binders below were run against Claudin18.2-His protein (human) (assay: indirect ELISA on coated Claudin18.2-His).

Row | Binder | EC50
1 | B1 | 0.00554 µg/mL
2 | B2 | 0.017 µg/mL
3 | B3 | 0.126 µg/mL
